Test results taken from PMC9778525.

Assays:
[1] = target: N-terminus His-tagged annexin V (human) (UniProt P08758); test: high-speed atomic force microscopy (HS-AFM); 1 uM annexin V added to supported lipid bilayers (DOPC:DOPS:biotinyl-DOPE = 7:2:1) on mica; 10 mM HEPES-NaOH pH 7.0, 2 mM CaCl2, 150 mM NaCl; trimers and 2D crystal lattice (p6) on the membrane
[2] = target: annexin V without any residual amino acids (human) (UniProt P08758); test: as above

“N-terminus His-tagged annexin V (from UniProt P08758 1-320) (natural protein)” gave a stoichiometry N [1] of 3.
“annexin V without any residual amino acids (from UniProt P08758 1-320) (natural protein)” showed a stoichiometry N [2] of 3.
